The values that follow come from patent publication US20230391888A1 (Sanofi, published 2023).

For the assay, the target named is T1, human CD123-Fc-His fusion protein (internal source) (human, UniProt P26951 19-305).
T1 construct: not shown: Fc and His tag
T1 sequence (looked up): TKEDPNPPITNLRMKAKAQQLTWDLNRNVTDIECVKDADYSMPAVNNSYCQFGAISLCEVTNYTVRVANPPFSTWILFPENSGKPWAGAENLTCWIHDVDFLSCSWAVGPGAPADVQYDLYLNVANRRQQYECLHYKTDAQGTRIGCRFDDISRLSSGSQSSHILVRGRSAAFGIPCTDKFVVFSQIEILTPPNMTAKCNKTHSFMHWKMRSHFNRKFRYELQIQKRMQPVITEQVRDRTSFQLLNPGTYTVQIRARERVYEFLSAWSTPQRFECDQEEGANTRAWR
In words: SPR, Biacore 8K; CD123-Fc-His captured by anti-His, antibody as analyte, 1:1 Langmuir fit. How it is done: Binding of antigens to the antibody constructs was measured using surface plasmon resonance (SPR) with a BIAcore 8K instrument (GE Healthcare) with HBS-EP+ buffer (GE Healthcare). For binding kinetics and affinity determination human CD3εδ-Fc-His and human CD123-Fc-His fusion proteins (both from internal source) were used as antigens. The anti-His capture antibody (His capture kit, GE Life Sciences) was immobilized via primary amine groups (11000 RU) on a research grade CM5 chip (GE Life Sciences) using standard procedures. Antigens were captured by the anti-His capture chip surface at a flow rate of 10 μL/min for 90 sec to reach antibody binding levels between 10 and 30 RU. […] Dissociation was measured at 30 μL/min by injection of HBS-EP+ buffer for 1200 sec. The chip surface was regenerated by inject of regeneration buffer (His capture kit, GE Life Sciences). Sensorgrams were double referenced with a blank chip surface and H BS-EP+ buffer blanks. Data were fitted with a 1:1 Langmuir binding model for determination of kinetic and affinity constants ka, kd and KD using Biacore 8K Evaluation software v1.11.7442 (GE Healthcare).

B1: anti-CD3ε × anti-CD123-dsTrasKO2 (ID 34) (bispecific antibody)
light 1: not shown
heavy 1: not shown
heavy 2: EVQLQQSGPELVKPGASVKMSCKASGYTFTDYYMKWVKQSHGKSLEWIGDIIPSNGATFYNQKFKGKATLTVDRSSSTAYMHLNSLTSEDSAVYYCTRSHLLRASWFAYWGQGTLVTVSAGGGGSGGGGSEVQLVESGGGLVQPGGSLRLSCAASGFNIKDTYIHWVRQAPGKCLEWVAEIYPTNGYTEYADSVKGRFTISADTSKNTAYLQMNSLRAEDTAVYYCSRWGGDGFYAMDYWGQGTLVTVSSDKTHTCPPCPAPEAAGGPSVFLFPPKPKDTLMISRTPEVTCVVVDVSHEDPEVKFNWYVDGVEVHNAKTKPREEQYNSTYRVVSVLTVLHQDWLNGKEYKCKVSNKALPAPIEKTISKAKGQPREPQVCTLPPSRDELTKNQVSLSCAVKGFYPSDIAVEWESNGQPENNYKTTPPVLDSDGSFFLVSKLTVDKSRWQQGNVFSCSVMHEALHNRFTQKSLSLSPG
light 2: not shown
Regarding B1, binding was put at a Kd of 0.239 nM.

B2: anti-TNP × anti-CD123-dsTrasKO2 Negative control (ID 43) (bispecific antibody, human IgG1, kappa, L234A L235A)
light 1: DVVMTQSPLSLPVTLGQPASISCRSSQSLVHSIGNTYLHWYQQRPGQSPRLLIYKVSNRFSGVPDRFSGSGSGTDFTLKISRVEAEDVGVYYCSQSTHVPFTFGQGTKLEIKRTVAAPSVFIFPPSDEQLKSGTASVVCLLNNFYPREAKVQWKVDNALQSGNSQESVTEQDSKDSTYSLSSTLTLSKADYEKHKVYACEVTHQGLSSPVTKSFNRGEC
heavy 1: not shown
heavy 2: B1 heavy 2
light 2: not shown
The molecule B2 had an equilibrium dissociation constant (Kd) of 0.546 nM.

B3: anti-CD3ε × anti-CD123-dsTrasKO2 (ID 37, alternative anti-CD3ε binding domain) (bispecific antibody)
light 1: DIVMTQTPLSLSVTPGQPASISCKSSQSLVHENLQTYLSWYLQKPGQSPQSLIYKVSNRFSGVPDRFSGSGSGTDFTLKISRVEAEDVGVYYCGQGTQYPFTFGSGTKVEIKRTVAAPSVFIFPPSDEQLKSGTASVVCLLNNFYPREAKVQWKVDNALQSGNSQESVTEQDSKDSTYSLSSTLTLSKADYEKHKVYACEVTHQGLSSPVTKSFNRGEC
heavy 1: not shown
heavy 2: B1 heavy 2
light 2: not shown
notes: also called anti-CD3ε × CD123-dsTrasKO2
Consider B3, for which the Kd came to 0.386 nM.

B4: anti-CD3ε × anti-CD123 Wild Type (ID 33) (bispecific antibody)
light 1: not shown
heavy 1: not shown
heavy 2: EVQLQQSGPELVKPGASVKMSCKASGYTFTDYYMKWVKQSHGKSLEWIGDIIPSNGATFYNQKFKGKATLTVDRSSSTAYMHLNSLTSEDSAVYYCTRSHLLRASWFAYWGQGTLVTVSAASTKGPSVFPLAPSSKSTSGGTAALGCLVKDYFPEPVTVSWNSGALTSGVHTFPAVLQSSGLYSLSSVVTVPSSSLGTQTYICNVNHKPSNTKVDKKVEPKSCDKTHTCPPCPAPEAAGGPSVFLFPPKPKDTLMISRTPEVTCVVVDVSHEDPEVKFNWYVDGVEVHNAKTKPREEQYNSTYRVVSVLTVLHQDWLNGKEYKCKVSNKALPAPIEKTISKAKGQPREPQVCTLPPSRDELTKNQVSLSCAVKGFYPSDIAVEWESNGQPENNYKTTPPVLDSDGSFFLVSKLTVDKSRWQQGNVFSCSVMHEALHNRFTQKSLSLSPG
light 2: DFVMTQSPSSLTVTAGEKVTMSCKSSQSLLNSGNQKNYLTWYLQKPGQPPKLLIYWASTRESGVPDRFTGSGSGTDFTLTISSVQAEDLAVYYCQNDYSYPYTFGGGTKLEIKRTVAAPSVFIFPPSDEQLKSGTASVVCLLNNFYPREAKVQWKVDNALQSGNSQESVTEQDSKDSTYSLSSTLTLSKADYEKHKVYACEVTHQGLSSPVTKSFNRGEC
notes: Wild type bispecific IgG (first anti-CD3ε arm)
For B4, the affinity, expressed as Kd, was 0.212 nM.

B5: anti-CD3ε-dsTrasKO2 × anti-CD123 (ID 35) (bispecific antibody)
light 1: not shown
heavy 1: not shown
heavy 2: B4 heavy 2
light 2: B4 light 2
notes: CD3ε arm is the pseudoFab (dsTrasKO2); also called anti-CD3E-dsTrasKO2 × anti-CD123
Molecule B5 showed a dissociation constant (Kd) of 0.257 nM.

B6: anti-TNP × anti-CD123 Negative control Wild Type (ID 42) (bispecific antibody)
light 1: B2 light 1
heavy 1: not shown
heavy 2: B4 heavy 2
light 2: B4 light 2
Turning to B6, the dissociation constant (Kd) turned out to be 0.231 nM.

B7: anti-CD3ε × anti-CD123 Wild Type (ID 36, alternative anti-CD3ε binding domain) (bispecific antibody)
light 1: B3 light 1
heavy 1: not shown
heavy 2: B4 heavy 2
light 2: B4 light 2
The molecule B7 returned a dissociation constant (Kd) of 0.352 nM.

B8: anti-TNP-dsTrasKO2 × anti-CD123 Negative control (ID 44) (bispecific antibody, human IgG1, kappa, L234A L235A)
light 1: not shown
heavy 1: not shown
heavy 2: B4 heavy 2
light 2: B4 light 2
The molecule B8 gave a dissociation constant Kd of 0.287 nM.
